According to patent US20210253697A1:

Legend:
[1] = molecular target: human TREM-1 on cells (BWZ/hTREM-1 reporter cells, PBMCs, macrophages, neutrophils, monocytes, synovial tissue cells) (human) (UniProt Q9NP99); assay: cell-based or functional assay
[2] = molecular target: human TREM-1 (hTREM-1 protein, SPR analyte of Examples 9 and 11) (human) (UniProt Q9NP99); assay: SPR, mAb captured, hTREM-1 analyte (Example 11)
[3] = molecular target: T1, cynomolgus monkey TREM-1 on cells (reporter cells, PBMCs, macrophages) (cynomolgus monkey); assay: cell-based or functional assay
T1 sequence: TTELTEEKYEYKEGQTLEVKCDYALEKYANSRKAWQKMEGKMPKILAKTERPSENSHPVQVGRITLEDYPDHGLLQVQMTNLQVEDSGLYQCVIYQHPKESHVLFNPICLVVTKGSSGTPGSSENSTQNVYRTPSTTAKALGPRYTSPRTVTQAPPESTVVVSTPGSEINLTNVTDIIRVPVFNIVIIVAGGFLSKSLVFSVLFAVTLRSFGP

[4] = molecular target: cynomolgus TREM-1 (cTREM-1 protein, SPR analyte of Examples 9 and 11) (cynomolgus monkey); assay: SPR, mAb captured, cTREM-1 analyte (Example 11)

human TREM-1 on cells (BWZ/hTREM-1 reporter cells, PBMCs, macrophages, neutrophils, monocytes, synovial tissue cells) (human), sequence (Q9NP99 21-234 limits assumed): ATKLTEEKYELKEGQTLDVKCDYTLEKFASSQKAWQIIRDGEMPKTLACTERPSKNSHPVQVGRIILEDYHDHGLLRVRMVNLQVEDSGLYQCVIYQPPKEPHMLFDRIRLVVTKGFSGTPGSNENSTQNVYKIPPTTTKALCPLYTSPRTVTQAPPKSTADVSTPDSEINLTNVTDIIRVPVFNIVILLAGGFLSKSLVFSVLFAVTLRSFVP
human PGLYRP1, sequence (O75594 22-196 limits assumed): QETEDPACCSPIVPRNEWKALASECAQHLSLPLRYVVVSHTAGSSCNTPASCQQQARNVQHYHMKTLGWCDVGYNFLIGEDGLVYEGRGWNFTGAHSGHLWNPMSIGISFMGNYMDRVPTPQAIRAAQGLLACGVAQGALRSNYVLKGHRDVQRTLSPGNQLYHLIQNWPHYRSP
human TREM-1 (hTREM-1 protein, SPR analyte of Examples 9 and 11) (human), sequence (Q9NP99 21-200 limits assumed): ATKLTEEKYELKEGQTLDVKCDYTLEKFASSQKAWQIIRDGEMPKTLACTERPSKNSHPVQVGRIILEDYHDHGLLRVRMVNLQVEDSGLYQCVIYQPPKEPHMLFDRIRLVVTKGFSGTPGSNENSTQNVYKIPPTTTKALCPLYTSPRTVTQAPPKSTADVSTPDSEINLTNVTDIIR

type II PGLYRP1 on transiently transfected HEK cells (ligand)
TNF-a release, RA synovial tissue cells, IgG4 + Type II cells, 1 × 10^4 HEK cells [1]: 95 pg/mL | TNF-a release, RA synovial tissue cells, IgG4 + Type II cells, 1 × 10^5 HEK cells [1]: 121 pg/mL | TNF-a release, RA synovial tissue cells, IgG4 + Type II cells, 3 × 10^3 HEK cells [1]: 54.6 pg/mL | TNF-a release, RA synovial tissue cells, IgG4 + Type II cells, 3 × 10^3 HEK cells (second column so headed) [1]: 57.9 pg/mL | TNF-a release, RA synovial tissue cells, IgG4 + Type II cells, 3 × 10^4 HEK cells [1]: 114 pg/mL

SC98Z12 (Santa Cruz Biotechnology, sc-80394, clone 98Z12) (antibody)
Kd [2]: 30 nM | % remaining activity at 0.003 µg/ml, BWZ/hTREM-1 reporter assay [1]: 120% | % remaining activity at 0.03 µg/ml, BWZ/hTREM-1 reporter assay [1]: 134% | % remaining activity at 0.3 µg/ml, BWZ/hTREM-1 reporter assay [1]: 131%

Sigma #WH0054210M4 (clone 2E2) (antibody)
Kd [2]: 20 nM | % remaining activity at 0.003 µg/ml, BWZ/hTREM-1 reporter assay [1]: 98% | % remaining activity at 0.03 µg/ml, BWZ/hTREM-1 reporter assay [1]: 104% | % remaining activity at 0.3 µg/ml, BWZ/hTREM-1 reporter assay [1]: 86%

human PGLYRP1 (from UniProt O75594 22-196) (ligand)
GM-CSF, RA synovial tissue cells, PGN + PGLYRP1 [1]: 616 pg/mL | IL-1beta, RA synovial tissue cells, PGN + PGLYRP1 [1]: 3770 pg/mL | IL-6, RA synovial tissue cells, PGN + PGLYRP1 [1]: 4190 pg/mL | IL-8, RA synovial tissue cells, PGN + PGLYRP1 [1]: 5510 pg/mL | MCP-1, RA synovial tissue cells, PGN + PGLYRP1 [1]: 471 pg/mL | MIP-1beta, RA synovial tissue cells, PGN + PGLYRP1 [1]: 4400 pg/mL | TNFa, normoxic M2 macrophages, PGN-BS + PGLYRP1, Donor 1 Avg [1]: 728 pg/mL | TNFa, normoxic M2 macrophages, PGN-BS + PGLYRP1, Donor 2 Avg [1]: 771 pg/mL | TNFalpha, RA synovial tissue cells, PGN + PGLYRP1 [1]: 1440 pg/mL | TNF-α, cyno M2 macrophages, PGN + PGRP-S, Donor 1 Avg [3]: 295 pg/mL | TNF-α, cyno M2 macrophages, PGN + PGRP-S, Donor 2 Avg [3]: 307 pg/mL

MAB1278 (R&D Systems, cat. no. MAB1278) (antibody)
BWZ/hTREM-1 reporter signal, RA synovial fluid, mAb 0.1 ug/ml, assay 1 [1]: 829000 | BWZ/hTREM-1 reporter signal, RA synovial fluid, mAb 0.1 ug/ml, assay 2 [1]: 691000 | BWZ/hTREM-1 reporter signal, RA synovial fluid, mAb 1 ug/ml, assay 1 [1]: 1.19e+06 | BWZ/hTREM-1 reporter signal, RA synovial fluid, mAb 1 ug/ml, assay 2 [1]: 1.02e+06 | BWZ/hTREM-1 reporter signal, RA synovial fluid, mAb 10 ug/ml, assay 1 [1]: 1.08e+06 | BWZ/hTREM-1 reporter signal, RA synovial fluid, mAb 10 ug/ml, assay 2 [1]: 1.05e+06 | IL-6, M2 macrophages on platebound mAb 2 µg/ml, Avg [1]: 412 pg/mL | IL-6, M2 macrophages on platebound mAb 6 µg/ml, Avg [1]: 877 pg/mL | IL-6, M2 macrophages on platebound mAb 20 µg/ml, Avg [1]: 1350 pg/mL | Luminescence × 10E6, BWZ/hTREM-1 reporter cells + activated neutrophils [1]: 1e+07 luminescence | TNFa, M2 macrophages on platebound mAb 2 µg/ml, Avg [1]: 2000 pg/mL | TNFa, M2 macrophages on platebound mAb 6 µg/ml, Avg [1]: 6450 pg/mL | TNFa, M2 macrophages on platebound mAb 20 µg/ml, Avg [1]: 7750 pg/mL | induction of NFAT-driven LacZ production, 1-10 µg/ml plate bound antibody [1]: 40 fold | induction of reporter luminescence, platebound antibody (FIG. 2) [1]: 32 fold | normalised reporter signal, antibody at 1 µg/ml (FIG. 3) [1]: > 1

Sigma #SAB1405121 (clone 3F5) (antibody)
% remaining activity at 0.003 µg/ml, BWZ/hTREM-1 reporter assay [1]: 104% | % remaining activity at 0.03 µg/ml, BWZ/hTREM-1 reporter assay [1]: 101% | % remaining activity at 0.3 µg/ml, BWZ/hTREM-1 reporter assay [1]: 97%

TREM-26 (Biolegend, cat. nos. 314902 and 314907) (antibody)
Kd [4]: 4 nM | Kd [2]: 0.9 nM | % remaining activity at 0.003 µg/ml, BWZ/hTREM-1 reporter assay [1]: 100% | % remaining activity at 0.03 µg/ml, BWZ/hTREM-1 reporter assay [1]: 124% | % remaining activity at 0.3 µg/ml, BWZ/hTREM-1 reporter assay [1]: 108% | Luminescence × 10E6, BWZ/hTREM-1 reporter cells + activated neutrophils [1]: 9.9e+06 luminescence | normalised reporter signal, antibody at 1 µg/ml (FIG. 3) [1]: > 1 | % remaining cyno TREM-1 activity at 0.74 ug/ml, reporter assay [3]: 104% | % remaining cyno TREM-1 activity at 20 ug/ml, reporter assay [3]: 87.7%

TREM-37 (Biolegend, cat. no. 316102) (antibody)
Kd [2]: 0.8 nM | % remaining activity at 0.003 µg/ml, BWZ/hTREM-1 reporter assay [1]: 98% | % remaining activity at 0.03 µg/ml, BWZ/hTREM-1 reporter assay [1]: 103% | % remaining activity at 0.3 µg/ml, BWZ/hTREM-1 reporter assay [1]: 90% | Luminescence × 10E6, BWZ/hTREM-1 reporter cells + activated neutrophils [1]: 6.1e+06 luminescence | normalised reporter signal, antibody at 1 µg/ml (FIG. 3) [1]: > 1
